Test results as given in paper doi:10.1101/2025.11.05.686744 (bioRxiv, 2025).
Where a chain is given by its changes, count along the chain named. Numbers in names are those of the source.

Columns and labels:
[1] = molecular target: Spindlin1 (residues 50-262) (human, UniProt Q9Y657 50-262); assay: NMR titration
[2] = molecular target: Spindlin1^C96A/H252F (residues 50-262) (human, UniProt Q9Y657 50-262, C96A | H252F); assay: NMR titration
Chain of Spindlin1^C96A/H252F (residues 50-262) (Q9Y657 50-262 C96A/H252F): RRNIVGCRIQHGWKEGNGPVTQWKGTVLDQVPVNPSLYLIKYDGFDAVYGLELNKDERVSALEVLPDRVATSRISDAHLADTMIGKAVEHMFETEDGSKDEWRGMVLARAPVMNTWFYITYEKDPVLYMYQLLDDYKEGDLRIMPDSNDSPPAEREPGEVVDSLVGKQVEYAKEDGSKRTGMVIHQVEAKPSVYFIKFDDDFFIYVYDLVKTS

Chain of Spindlin1 (residues 50-262) (Q9Y657 50-262): as the sequence (Q9Y657 50-262 C96A/H252F) above, with A47C, F203H counted along it

B1: HBx_(1-120) protein genotype D (Hepatitis B virus protein X, short isoform) (domain or fragment)
chain: MAARLCCQLDPARDVLCLRPVGAESCGRPFSGSLGTLSSPSPSAVPTDHGAHLSLRGLPVCAFSSAGPCALRFTSARRMETTVNAHQILPKVLHKRTLGLSAMSTTDLEAYFKDCLFKDW
binding result [1]: binds

B2: HBx_(1-120)^C61A/C69A (domain or fragment, Hepatitis B virus genotype D, UniProt P03165 1-120, looked up)
chain: B1 chain with C61A, C69A
binding result [2]: binds
